{
  "source": "paper PMC11996858",
  "about": "“Cathepsin K cleavage of angiopoietin-2 creates detrimental Tie2 antagonist fragments in sepsis” (The Journal of Clinical Investigation, 2025)",
  "proteins": {"B1": {"name": "recombinant human angiopoietin-2, full length (ligand, UniProt O15123 19-496, looked up)", "chain": "YNNFRKSMDSIGKKQYQVQHGSCSYTFLLPEMDNCRSSSSPYVSNAVQRDAPLEYDDSVQRLQVLENIMENNTQWLMKLENYIQDNMKKEMVEIQQNAVQNQTAVMIEIGTNLLNQTAEQTRKLTDVEAQVLNQTTRLELQLLEHSLSTNKLEKQILDQTSEINKLQDKNSFLEKKVLAMEDKHIIQLQSIKEEKDQLQVLVSKQNSIIEELEKKIVTATVNNSVLQKQQHDLMETVNNLLTMMSTSNSAKDPTVAKEEQISFRDCAEVFKSGHTTNGIYTLTFPNSTEEIKAYCDMEAGGGGWTIIQRREDGSVDFQRTWKEYKVGFGNPSGEYWLGNEFVSQLTNQQRYVLKIHLKDWEGNEAYSLYEHFYLSSEELNYRIHLKGLTGTAGKISSISQPGNDFSTKDGDNDKCICKCSQMLTGGWWFDACGPSNLNGMYYPQRQNTNKFNGIKWYYWKGSGYSLKATTMMIRPADF", "notes": "angiopoietin-2 (ANGPT2), human, recombinant full-length protein of about 75 kDa (glycosylated); As a secreted recombinant protein it probably lacks the signal peptide (surmised); also called ANGPT2; full-length ANGPT2; source: bought: R&D Systems"}},
  "molecular_target": "the molecule itself",
  "assay": "non-reducing SDS-PAGE with Western blot; recombinant ANGPT2 incubated with CM-Mq^Veh or CM-Mq^LPS (serum-free conditioned media of RAW264.7 cells), then SDS-PAGE under nonreducing conditions against reduced conditions (10% beta-mercaptoethanol) and Western analysis for ANGPT2",
  "data": [
    {"protein": "B1", "values": [
      {"measurement": "stoichiometry N", "value": "≥ 2"}
    ]}
  ]
}
